Key:
[1] = Preparation of single peptide injection preparations using sodium carbonate solution (Example 1); type: physicochemical; conditions: for Peptide concentration at which injection preparation could be prepared, Example 1 (Na2CO3): 41 mg sodium carbonate decahydrate in 1 ml injection solvent; for pH of injection preparation, Example 1 (Na2CO3): injection solvent containing sodium carbonate
Experimental: (§1) 41 mg of sodium carbonate decahydrate (Na2CO3.10H2O) was dissolved in 1 ml of an injection solvent to obtain an injection solvent containing sodium carbonate. In order to prepare formulations of the each peptide that was not dissolved in an injection solvent in Comparative Example 1, Peptides 1, 2, 4, 7, and 10 were separately added to 1 ml of injection solvents containing sodium carbonate.
In the case of Peptide 1, it was confirmed that the injection preparation could be obtained with the addition of 9 mg of peptide at the maximum. All the obtained injection preparations had pH levels within adequate range for injection (Table 2).

[2] = Preparation of single peptide injection preparations using injection solvent (Comparative Example 1); conditions: for Whether injection preparation could be prepared (in words): 2 mg to 20 mg peptide in 1 ml injection solvent; for Peptide concentration at which injection preparation could be prepared, Comparative Example 1 (injection solvent): injection solvent (water), room temperature, class symbol
Experimental: Pharmaceutical water defined by the Japanese Pharmacopoeia was used as an injection solvent.
In order to prepare formulations containing one of the peptides shown in Table 1, each of the peptides shown in Table 1 were added to 1 ml of an injection solvent. The resultants were agitated at room temperature so as to dissolve the entire amounts of the peptides added, and thereby colorless and clear solutions of each peptide were obtained. Thereafter, the peptide solutions were sterilized via filtration (with the use of a 0.22-μm filter) to obtain injection preparations.
The amounts of peptides added varied within the range of 2 mg to 20 mg, and injection preparations were prepared at each concentration. […] For these peptides, peptide concentrations that enable preparation of injection preparations were investigated.

[3] = Preparation of injection preparations using sodium carbonate/arginine solution (Example 3); type: physicochemical; conditions: for Peptide concentration at which injection preparation could be prepared, Example 3 (Na2CO3/Arg): 41 mg sodium carbonate decahydrate and 40 mg L-arginine in 1 ml injection solvent; for pH of injection preparation, Example 3 (Na2CO3/Arg): injection solvent containing sodium carbonate and arginine
Experimental: 41 mg of sodium carbonate decahydrate and 40 mg of L-arginine were dissolved in 1 ml of an injection solvent to obtain an injection solvent containing sodium carbonate and arginine.
In the case of Peptide 3, it was confirmed that the injection preparation could be obtained with the addition of 15 mg of peptide at the maximum. All the obtained injection preparations had pH levels within adequate range for injection (Table 2).

[4] = Stability of lyophilized formulation, peptide content in the vial by HPLC (Example 7); type: physicochemical; conditions: 25 degrees C., humidity 60%, relative to comparative solution peak area = 100%
Experimental: 107.7 g of L-arginine and 110.4 g of sodium carbonate hydrate were dissolved in 5,500 ml of an injection solvent. Peptide 1, Peptide 2, Peptide 3, and Peptide 4 were dissolved therein in amounts of 6.2 g, 7.5 g, 8.7 g, and 8.0 g, respectively. Thereafter, the total amount of the solution was adjusted to 7,000 ml with the addition of an injection solvent, and a combination peptide solution was obtained. […] Following lyophilization, the vial was fully stoppered and the aluminum cap seaming was conducted. Thus, a lyophilized formulation was produced.
Further, the results shown above were subjected to regression analysis, so as to predict stability 24 months later.

[5] = Combination peptide injection preparation using arginine solution (Example 4); type: physicochemical; set-up: key to Dissolution on successive addition, Example 4-1 (Arg) (1 mg each) / Dissolution on successive addition, Example 4-2 (Arg) (2 mg each): ◯: Dissolved; X: White Turbid; conditions: for Dissolution on successive addition, Example 4-1 (Arg) (1 mg each): 1 mg each peptide added one after another to 1 ml arginine solvent; for Dissolution on successive addition, Example 4-2 (Arg) (2 mg each): 2 mg each peptide added one after another to 1 ml arginine solvent
Experimental: In order to prepare an injection preparation containing combination of the peptides shown in Table 1, the 10 types of peptides shown in Table 1 were added in an amount of 1 mg each to 1 ml of the injection solvent containing arginine as used in Example 2. The entire amount of one peptide was dissolved upon addition thereof to obtain a colorless and clear solution, and another peptide was then added thereto.
Subsequently, preparation of another injection preparation containing combination of the peptides was attempted in the same manner as described above, except that the amount of each peptide added was changed to 2 mg. […] Thus, no other peptides were added thereafter.

[6] = Preparation of single peptide injection preparations using arginine solution (Example 2); type: physicochemical; conditions: for Peptide concentration at which injection preparation could be prepared, Example 2 (Arg): 40 mg L-arginine in 1 ml injection solvent; for pH of injection preparation, Example 2 (Arg): injection solvent containing arginine
Experimental: as §1, with “40” for “41”, “L-arginine” for “sodium carbonate decahydrate (Na2CO3.10H2O)”, “arginine.” for “sodium carbonate.”, “of” for “of the”
In the case of Peptide 1, it was confirmed that the injection preparation could be obtained with the addition of 6 mg of peptide at the maximum. All the obtained injection preparations had pH levels within adequate range for injection (Table 2).

[7] = Combination peptide injection preparation using sodium carbonate solution (Example 5); type: physicochemical; set-up: key to Dissolution on successive addition, Example 5 (Na2CO3) (2 mg each) / Dissolution of further 2 mg of Peptide 2, Example 5 (Na2CO3): ◯: Dissolved; X: White Turbid; conditions: for Dissolution on successive addition, Example 5 (Na2CO3) (2 mg each): 2 mg each peptide added one after another to 1 ml sodium carbonate solvent
Experimental: (§2) In order to prepare an injection preparation containing combination of the peptides shown in Table 1, the 10 types of peptides shown in Table 1 were added in an amount of 2 mg each to 1 ml of the injection solvent containing sodium carbonate as used in Example 1. The addition of each peptide was conducted in the same manner as in Example 4.

[8] = Combination peptide injection preparation using sodium carbonate/arginine solution (Example 6); type: physicochemical; set-up: key to Dissolution on successive addition, Example 6 (Na2CO3/Arg) (2 mg each) / Dissolution of further 2 mg of Peptide 2, Example 6 (Na2CO3/Arg): ◯: Dissolved; X: White Turbid; conditions: for Dissolution on successive addition, Example 6 (Na2CO3/Arg) (2 mg each): 2 mg each peptide added one after another to 1 ml sodium carbonate/arginine solvent
Experimental: as §2, with “carbonate and arginine” for “carbonate”, “3.” for “1.”

[9] = further 2 mg added after all 10 peptides (2 mg each) had dissolved

EYYELFVNI (T cell epitope) [Peptide 2]
Whether injection preparation could be prepared (in words) ([1]; 5 mg to 20 mg peptide in 1 ml injection solvent containing sodium carbonate): possible to prepare the injection preparations regardless of the amounts of peptides added
Peptide concentration at which injection preparation could be prepared, Example 1 (Na2CO3) ([1]; class symbol): ⊚ (20 mg/ml or more)
pH of injection preparation, Example 1 (Na2CO3) [1]: 8.90
Whether injection preparation could be prepared (in words) [2]: not possible to prepare the injection preparations regardless of the amounts of peptides added
Peptide concentration at which injection preparation could be prepared, Comparative Example 1 (injection solvent) [2]: X (0.08 mg/ml or less)
Peptide concentration at which injection preparation could be prepared, Example 3 (Na2CO3/Arg) ([3]; class symbol): ⊚ (20 mg/ml or more)
pH of injection preparation, Example 3 (Na2CO3/Arg) [3]: 9.67
Peptide content in the vial, 0 months [4]: 101.8%
Peptide content in the vial, 1 month [4]: 99.5%
Peptide content in the vial, 3 months [4]: 101.3%
Peptide content in the vial, 6 months [4]: 101.4%
Dissolution on successive addition, Example 4-1 (Arg) (1 mg each) [5]: ◯
Dissolution on successive addition, Example 4-2 (Arg) (2 mg each) [5]: ◯
Whether injection preparation could be prepared (in words) ([6]; 5 mg to 20 mg peptide in 1 ml injection solvent containing arginine): possible to prepare the injection preparations regardless of the amounts of peptides added
Peptide concentration at which injection preparation could be prepared, Example 2 (Arg) ([6]; class symbol): ⊚ (20 mg/ml or more)
pH of injection preparation, Example 2 (Arg) [6]: 9.03
Dissolution on successive addition, Example 5 (Na2CO3) (2 mg each) [7]: ◯
Dissolution of further 2 mg of Peptide 2, Example 5 (Na2CO3) [7, 9]: X
Dissolution of further 2 mg (in words), Example 5 ([7]; further 2 mg after all 10 peptides (2 mg each), sodium carbonate solvent): white turbidity
Dissolution on successive addition, Example 6 (Na2CO3/Arg) (2 mg each) [8]: ◯
Dissolution of further 2 mg of Peptide 2, Example 6 (Na2CO3/Arg) [8, 9]: ◯
Dissolution of further 2 mg (in words), Example 6 ([8]; further 2 mg after all 10 peptides (2 mg each), sodium carbonate/arginine solvent): colorless and clear solution was obtained

SYGVLLWEI (T cell epitope) [Peptide 1]
Peptide concentration at which injection preparation could be prepared, Example 1 (Na2CO3) ([1]; numeric): 9 mg/mL
Maximum amount of peptide added that gave an injection preparation ([1]; in 1 ml injection solvent containing sodium carbonate): 9 mg
pH of injection preparation, Example 1 (Na2CO3) [1]: (9.85)
Whether injection preparation could be prepared (in words) [2]: not possible to prepare the injection preparations regardless of the amounts of peptides added
Peptide concentration at which injection preparation could be prepared, Comparative Example 1 (injection solvent) [2]: X (0.08 mg/ml or less)
Peptide concentration at which injection preparation could be prepared, Example 3 (Na2CO3/Arg) ([3]; numeric): 10 mg/mL
pH of injection preparation, Example 3 (Na2CO3/Arg) [3]: (10.41)
Peptide content in the vial, 0 months [4]: 101.0%
Peptide content in the vial, 1 month [4]: 98.7%
Peptide content in the vial, 3 months [4]: 98.9%
Peptide content in the vial, 6 months [4]: 98.6%
Dissolution on successive addition, Example 4-1 (Arg) (1 mg each) [5]: ◯
Dissolution on successive addition, Example 4-2 (Arg) (2 mg each) [5]: ◯
Peptide concentration at which injection preparation could be prepared, Example 2 (Arg) ([6]; numeric): 6 mg/mL
Maximum amount of peptide added that gave an injection preparation ([6]; in 1 ml injection solvent containing arginine): 6 mg
pH of injection preparation, Example 2 (Arg) [6]: (10.17)
Dissolution on successive addition, Example 5 (Na2CO3) (2 mg each) [7]: ◯
Dissolution on successive addition, Example 6 (Na2CO3/Arg) (2 mg each) [8]: ◯
